Assay results from the supplement of paper PMC9112550, “Optimization of the antimicrobial peptide Bac7 by deep mutational scanning” (BMC Biology, 2022).

Tested on: Escherichia coli TOP10
Assay: shrunken log2 fold change of peptide-encoding DNA abundance (4.5 h post-induction vs induction); higher = less antimicrobial activity (less host growth inhibition)
Conditions: time post-induction: 4.5 h; library: site-saturation at positions 5, 18, 19, 20
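Note: peptides expressed intracellularly from a pBAD plasmid library in pooled LB shake-flask culture, induced with 0.3% L-arabinose, DNA abundance read by NGS, three biological replicates, DESeq2 with apeglm shrinkage.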

With RRIRQRPPRLPRPRPRPESSPRP the “shrunken log2 fold change” value was -0.0458.
For RRIRRRPPRLPRPRPRPWPEPRP, the “shrunken log2 fold change” value was -0.201.
With RRIRIRPPRLPRPRPRPHFNPRP the “shrunken log2 fold change” value was -0.966.
In the case of RRIRVRPPRLPRPRPRPEFFPRP, the “shrunken log2 fold change” value is reported as 0.183.
In the case of RRIRRRPPRLPRPRPRPEYNPRP, the “shrunken log2 fold change” value is reported as -0.103.
In the case of RRIRMRPPRLPRPRPRPNANPRP, the “shrunken log2 fold change” value is reported as 0.777.
For RRIRVRPPRLPRPRPRPPHMPRP, the “shrunken log2 fold change” value was -0.0804.
RRIRDRPPRLPRPRPRPLMAPRP was tested, and the “shrunken log2 fold change” value was 1.09.
With RRIRSRPPRLPRPRPRPGTQPRP the “shrunken log2 fold change” value was 0.00256.
RRIRHRPPRLPRPRPRPMQMPRP was tested, and the “shrunken log2 fold change” value was -0.00907.
For RRIRRRPPRLPRPRPRPSLWPRP, the “shrunken log2 fold change” value was 0.293.
For RRIRYRPPRLPRPRPRPMHPPRP, the “shrunken log2 fold change” value was -0.0223.
With RRIRERPPRLPRPRPRPRYKPRP the “shrunken log2 fold change” value was -0.0357.
RRIRHRPPRLPRPRPRPCWEPRP was tested, and the “shrunken log2 fold change” value was 0.153.
In the case of RRIRGRPPRLPRPRPRPAFHPRP, the “shrunken log2 fold change” value is reported as 0.209.
In the case of RRIRVRPPRLPRPRPRPFMEPRP, the “shrunken log2 fold change” value is reported as -0.265.
With RRIRCRPPRLPRPRPRPHMVPRP the “shrunken log2 fold change” value was -0.149.
For RRIRMRPPRLPRPRPRPYQIPRP, the “shrunken log2 fold change” value was -0.0607.
RRIRARPPRLPRPRPRPRQSPRP was tested, and the “shrunken log2 fold change” value was 0.233.
With RRIRMRPPRLPRPRPRPNSAPRP the “shrunken log2 fold change” value was 0.0568.
For RRIRQRPPRLPRPRPRPVIRPRP, the “shrunken log2 fold change” value was -0.406.
With RRIRTRPPRLPRPRPRPDYPPRP the “shrunken log2 fold change” value was 0.0242.
RRIRLRPPRLPRPRPRPKFVPRP was tested, and the “shrunken log2 fold change” value was -0.055.
With RRIRIRPPRLPRPRPRPKYWPRP the “shrunken log2 fold change” value was -0.678.
In the case of RRIRLRPPRLPRPRPRPSVIPRP, the “shrunken log2 fold change” value is reported as -0.183.
In the case of RRIRHRPPRLPRPRPRPFACPRP, the “shrunken log2 fold change” value is reported as -0.205.
With RRIRLRPPRLPRPRPRPFNIPRP the “shrunken log2 fold change” value was -0.0972.
In the case of RRIRQRPPRLPRPRPRPPSCPRP, the “shrunken log2 fold change” value is reported as 0.348.
With RRIRTRPPRLPRPRPRPIEPPRP the “shrunken log2 fold change” value was -0.0864.
In the case of RRIRCRPPRLPRPRPRPSKPPRP, the “shrunken log2 fold change” value is reported as -0.109.
RRIRRRPPRLPRPRPRPVQMPRP was tested, and the “shrunken log2 fold change” value was 0.158.
With RRIRHRPPRLPRPRPRPPLNPRP the “shrunken log2 fold change” value was -0.0242.
RRIRCRPPRLPRPRPRPWAVPRP was tested, and the “shrunken log2 fold change” value was 0.0183.
In the case of RRIRSRPPRLPRPRPRPYQYPRP, the “shrunken log2 fold change” value is reported as -1.11.
For RRIRIRPPRLPRPRPRPDWWPRP, the “shrunken log2 fold change” value was -0.00879.
For RRIRKRPPRLPRPRPRPEKLPRP, the “shrunken log2 fold change” value was 0.103.
RRIRYRPPRLPRPRPRPKWMPRP was tested, and the “shrunken log2 fold change” value was -0.27.
For RRIRCRPPRLPRPRPRPCYHPRP, the “shrunken log2 fold change” value was -0.79.
In the case of RRIRSRPPRLPRPRPRPIPHPRP, the “shrunken log2 fold change” value is reported as -0.184.
In the case of RRIRFRPPRLPRPRPRPVRMPRP, the “shrunken log2 fold change” value is reported as 0.0345.
In the case of RRIRHRPPRLPRPRPRPMHHPRP, the “shrunken log2 fold change” value is reported as -0.154.
RRIRFRPPRLPRPRPRPPPAPRP was tested, and the “shrunken log2 fold change” value was 1.49.
For RRIRNRPPRLPRPRPRPHMSPRP, the “shrunken log2 fold change” value was 0.0135.
RRIRIRPPRLPRPRPRPLCSPRP was tested, and the “shrunken log2 fold change” value was -0.682.
RRIRIRPPRLPRPRPRPSFSPRP was tested, and the “shrunken log2 fold change” value was -0.357.
For RRIRKRPPRLPRPRPRPWPVPRP, the “shrunken log2 fold change” value was 0.47.
With RRIRRRPPRLPRPRPRPLTMPRP the “shrunken log2 fold change” value was 0.0632.
For RRIRWRPPRLPRPRPRPHVNPRP, the “shrunken log2 fold change” value was -0.315.
RRIRIRPPRLPRPRPRPCCYPRP was tested, and the “shrunken log2 fold change” value was -0.495.
In the case of RRIRQRPPRLPRPRPRPEKWPRP, the “shrunken log2 fold change” value is reported as -0.191.
With RRIRTRPPRLPRPRPRPKQPPRP the “shrunken log2 fold change” value was 0.0517.
In the case of RRIRFRPPRLPRPRPRPPITPRP, the “shrunken log2 fold change” value is reported as -0.389.
For RRIRCRPPRLPRPRPRPRPAPRP, the “shrunken log2 fold change” value was 0.834.
RRIRNRPPRLPRPRPRPTKFPRP was tested, and the “shrunken log2 fold change” value was -0.607.
In the case of RRIRDRPPRLPRPRPRPFKVPRP, the “shrunken log2 fold change” value is reported as -0.0463.
For RRIRTRPPRLPRPRPRPYAYPRP, the “shrunken log2 fold change” value was -0.0309.
With RRIRCRPPRLPRPRPRPQGGPRP the “shrunken log2 fold change” value was -0.107.
With RRIRVRPPRLPRPRPRPVVVPRP the “shrunken log2 fold change” value was -0.194.
For RRIRRRPPRLPRPRPRPNGNPRP, the “shrunken log2 fold change” value was 0.0494.
With RRIRCRPPRLPRPRPRPIFHPRP the “shrunken log2 fold change” value was -0.333.
